Where no end group is shown, it is not given here.
T1: mouse bombesin receptor subtype-3 (mouse, UniProt O54798 1-399)
T1 construct: bombesin receptor subtype-3 of mouse (Mus musculus); also called mBRS3; mouse BRS3; source: HEK293, transiently transfected, on cells
T1 sequence (looked up): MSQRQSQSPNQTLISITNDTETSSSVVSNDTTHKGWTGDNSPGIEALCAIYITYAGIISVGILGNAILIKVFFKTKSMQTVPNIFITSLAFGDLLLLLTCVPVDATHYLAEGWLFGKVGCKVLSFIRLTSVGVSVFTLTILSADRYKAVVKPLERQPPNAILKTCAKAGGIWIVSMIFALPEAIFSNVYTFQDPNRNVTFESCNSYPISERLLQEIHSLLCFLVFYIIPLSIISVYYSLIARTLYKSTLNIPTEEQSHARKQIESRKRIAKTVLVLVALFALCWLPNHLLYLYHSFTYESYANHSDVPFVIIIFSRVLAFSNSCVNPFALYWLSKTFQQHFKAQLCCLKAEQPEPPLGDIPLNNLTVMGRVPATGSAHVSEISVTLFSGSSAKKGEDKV

T2: human bombesin receptor subtype-3 (human, UniProt P32247 1-399)
T2 construct: bombesin receptor subtype-3 of human (Homo sapiens); also called hBRS3; human BRS3; source: HEK293, transiently transfected, on cells
T2 sequence (looked up): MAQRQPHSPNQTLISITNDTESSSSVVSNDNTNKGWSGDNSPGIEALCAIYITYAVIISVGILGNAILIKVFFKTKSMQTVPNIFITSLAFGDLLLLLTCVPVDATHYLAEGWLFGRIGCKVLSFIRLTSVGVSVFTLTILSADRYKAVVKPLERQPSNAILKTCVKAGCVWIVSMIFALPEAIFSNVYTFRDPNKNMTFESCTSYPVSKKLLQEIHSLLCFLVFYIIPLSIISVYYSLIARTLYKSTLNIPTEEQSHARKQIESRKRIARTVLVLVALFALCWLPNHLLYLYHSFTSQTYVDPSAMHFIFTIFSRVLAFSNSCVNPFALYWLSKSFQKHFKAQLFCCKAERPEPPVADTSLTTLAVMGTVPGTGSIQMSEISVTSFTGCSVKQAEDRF


Key:
Settings in all cases: one partner purified
[1] = target: T1, mouse bombesin receptor subtype-3; experiment: radioligand binding; displacement of 50 pM [125I]-Tyr42-GRP by unlabeled peptide on disaggregated transfected HEK293 cells; 1 h at 21°C; 24.5 mM HEPES pH 7.4, 98 mM NaCl; bound tracer separated by centrifugation
[2] = target: T2, human bombesin receptor subtype-3; experiment: as above
[3] = target: T1, mouse bombesin receptor subtype-3; experiment: radioligand binding; displacement of 50 pM [125I]-Tyr-NMB by unlabeled peptide on disaggregated transfected HEK293 cells; 1 h at 21°C; 24.5 mM HEPES pH 7.4, 98 mM NaCl; bound tracer separated by centrifugation
[4] = target: T2, human bombesin receptor subtype-3; experiment: as above

| Ki [1] [nM] | Ki [2] [nM] | Ki [3] [nM] | Ki [4] [nM] | Binder |
| --- | --- | --- | --- | --- |
| > 1000 | > 1000 |  |  | APLQPGGSPALTKIYPRGSHWAVGHLM (ends and bridges not checked, gastrin-releasing peptide, 27 residues; No C-terminal amide is printed for this peptide; also called GRP; source: synthetic peptide (Anhui Guoping Pharmaceutical)) [gastrin-releasing peptide, unlabeled ligand peptide of the radioligand binding assays] |
|  |  | > 1000 | > 1000 | YKIKVNPRGNLWATGHFM (ends and bridges not checked, The N-terminal Tyr may have been added for iodination (surmise); No C-terminal amide is printed for this peptide; also called NMB; source: synthetic peptide (Anhui Guoping Pharmaceutical)) [neuromedin B, unlabeled ligand peptide of the radioligand binding assays] |
